B1: M27-F11 (Fab, V domains shown)
VH: EVQLLESGGGLVQPGGSLRLSCAASGFTFSSYHMMWVRQAPGKGLEWVSSIYPSGGATMYADSVKGRFTISRDNSKNTLYLQMNSLRAEDTAMYYCARDGYHYGDYTYFQHWGQGTLVTVSS
VL: DIQMTQSPSFLSASVGDRVTITCRASQGISSYLAWYQQKPGKAPKLLIYAASSLQSGVPSRFSGSGSGTDFTLTISSLQPEDFATYYCQQSYNTLRTFGPGTKVDLK
notes: HC as printed runs into CH1
B2: M11-E04 (Fab, V domains shown)
VH: EVQLLESGGGLVQPGGSLRLSCAASGFTFSMYHMNWVRQAPGKGLEWVSGIVSSGGVTFYADSVKGRFTISRDNSKNTLYLQMNSLRAEDTAVYYCARITTVTTGGAFDIWGQGTMVTVSS
VL: DIQMTQSPSSLSASVGDRVTITCRASQSISIYLTWYQHRPGKAPNLLIYGAATLQTGVPSRFSGSGSGTDFTLTIRGLQPEDFATYYCQQTFSLPRTFGQGTKLEIK
notes: HC as printed runs into CH1
B3: M12-B04 (Fab, V domains shown)
VH: EVQLLESGGGLVQPGGSLRLSCAASGFTFSLYSMYWVRQAPGKGLEWVSRIRPSGGGTVYADSVKGRFTISRDNSKNTLYLQMNSLRAEDTAVYYCARDPLYSSGDVWGQGTTVTVSS
VL: DIQMTQSPSSLSASVGDRVTITCRASQGIRNDLGWYQHKPGKAPKLLIYAASILQSGVPSRFSGTASGTDFTLTISSLQPEDFATYFCLQDYEYPLTFGGGTKLDIK
notes: HC as printed runs into CH1
B4: M11-A10 (Fab, V domains shown)
VH: EVQLLESGGGLVQPGGSLRLSCAASGFTFSNYWMMWVRQAPGKGLEWVSGIGSSGGFTSYADSVKGRFTISRDNSKNTLYLQMNSLRAEDTAVYYCAKGSYSDYGVFESWGQGTLVTVSS
VL: DIQMTQSPSSLSASVGDRVAITCRASQSIDTYLNWYQQKPGKAPKLLIYDASNLEIGVPSRFSGSGSGTDFTFIINSLQPEDVATYYCQHYLYAPYSFGQGTKLEIK
notes: HC as printed runs into CH1; also called Ml1-A10
B5: M11-E01 (Fab, V domains shown)
VH: EVQLLESGGGLVQPGGSLRLSCAASGFTFSTYEMYWVRQAPGKGLEWVSGIGSSGGMTMYADSVKGRFTISRDNSKNTLYLQMNSLRAEDTAMYYCAREQPGIAALQFWGQGTLVTVSS
VL: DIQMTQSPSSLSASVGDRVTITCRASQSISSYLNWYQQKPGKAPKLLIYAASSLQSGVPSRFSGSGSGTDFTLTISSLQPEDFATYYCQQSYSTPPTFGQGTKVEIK
notes: HC as printed runs into CH1
B6: M12-D10 (Fab, V domains shown)
VH: EVQLLESGGGLVQPGGSLRLSCAASGFTFSNYPMDWVRQAPGKGLEWVSSISSSGGWTNYADSVKGRFTISRDNSKNTLYLQMNSLRAEDTAVYYCATDTSGSYLGFDYWGQGTLVTVSS
VL: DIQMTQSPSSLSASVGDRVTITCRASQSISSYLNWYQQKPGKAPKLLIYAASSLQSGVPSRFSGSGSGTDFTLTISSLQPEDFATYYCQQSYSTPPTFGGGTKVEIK
notes: HC as printed runs into CH1
B7: M27-E03 (Fab, V domains shown)
VH: EVQLLESGGGLVQPGGSLRLSCAASGFTFSSYMMHWVRQAPGKGLEWVSGIYPSGGWTDYADSVKGRFTISRDNSKNTLYLQMNSLRAEDTATYYCARLVAGLDAFDIWGQGTMVTVSS
VL: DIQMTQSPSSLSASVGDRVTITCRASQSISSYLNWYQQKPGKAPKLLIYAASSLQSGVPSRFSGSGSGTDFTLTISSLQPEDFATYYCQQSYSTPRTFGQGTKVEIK
notes: HC as printed runs into CH1
B8: M12-C09 (Fab, V domains shown)
VH: EVQLLESGGGLVQPGGSLRLSCAASGFTFSSYAMVWVRQAPGKGLEWVSSIGSSGGFTLYADSVKGRFTISRDNSKNTLYLQMNSLRAEDTAVYYCASMNLGGGDAFDIWGQGTMVTVSS
VL: DIQMTQSPSSLSASVGDRVTITCRASQSIGIYLNWYHQKPGKAPNLLIYGASSLQSGVPSRFSGSGSGTDFTLTISSLQPGDFATYYCQHSYSTPFTFGGGTKVEIK
notes: HC as printed runs into CH1
B9: M11-E06 (Fab, V domains shown)
VH: EVQLLESGGGLVQPGGSLRLSCAASGFTFSQYAMHWVRQAPGKGLEWVSSIYPSGGFTLYADSVKGRFTISRDNSKNTLYLQMNSLRAEDTAMYYCARGGWLAGGELLNWGQGTLVTVSS
VL: DIQMTQSPSSLSASIGDRVTISCRASRGIGTYLNWYQQHAGKAPKLLIRAASSLETGVPPRFSGSGSGTDFTLTISSLQSDDFATYYCQESFTNVYNFGQGTKLEIK
notes: HC as printed runs into CH1
B10: M12-C10 (Fab, V domains shown)
VH: EVQLLESGGGLVQPGGSLRLSCAASGFTFSDYEMHWVRQAPGKGLEWVSGISPSGGKTQYADSVKGRFTISRDNSKNTLYLQMNSLRAEDTAVYYCARDLKWGGRGSPDWYFDLWGRGTLVTVSS
VL: QSALTQPPSVSVSPGQTASITCSGDKLGEKYVSWYQQKPGQSPVVVIYQDNKRPSGIPERFSGSNSGNTATLTISGTQAVDEADYYCQAWDSYTVVFGGGSKLTVLG
notes: HC as printed runs into CH1
B11: M12-E06 (Fab, V domains shown)
VH: EVQLLESGGGLVQPGGSLRLSCAASGFTFSQYKMLWVRQAPGKGLEWVSGIGPSGGLTAYADSVKGRFTISRDNSKNTLYLQMNSLRAEDTAVYYCARAPWFGELGMDVWGQGTTVTVSS
VL: DIQMTQSPSSLSASVGDRVSITCRASQSISTYLNWYQHKPGKAPTLLIYGAFSLQSGVPSRFSGSGSGTDFALTISSLQPEDFATYYCQQSHSTPPTFGQGTRVEIK
notes: HC as printed runs into CH1
B12: M27-B01 (Fab, V domains shown)
VH: EVQLLESGGGLVQPGGSLRLSCAASGFTFSDYTMWWVRQAPGKGLEWVSSISSSGGITFYADSVKGRFTISRDNSKNTLYLQMNSLRAEDTAVYYCARSADTAMGGAFDIWGQGTMVTVSS
VL: not shown
notes: HC as printed runs into CH1
B13: M27-B12 (Fab, V domains shown)
VH: EVQLLESGGGLVQPGGSLRLSCAASGFTFSWYQMMWVRQAPGKGLEWVSSISPSGGITEYADSVKGRFTISRDNSKNTLYLQMNSLRAEDTAVYYCARDRSSGWYYYGMDVWGQGTTVTVSS
VL: QYELTQPPAVSVSPGQTATITCSGDKLGDEYAAWYQQKPGQSPVLVIYQDRKRPSGIPERFSGSNFGNTATLTITGTQVMDEADYYCQAWGKRNVVFGGGTKLTVL
notes: HC as printed runs into CH1
B14: M10-G09 (Fab, V domains shown)
VH: EVQLLESGGGLVQPGGSLRLSCAASGFTFSQYGMQWVRQAPGKGLEWVSSIRSSGGATRYADSVKGRFTISRDNSKNTLYLQMNSLRAEDTAVYYCARDGYYDSSGYPDYWGQGTLVTVSS
VL: DIQMTQSPSSLSASVGDSVTITCRASQSISGYINWYQQKAGKAPKLLIYAASSLQSGVPSRFSGSGSGTHFTLTISSLQPEDFATYYCQQYVSYPFTFGPGTKVDIK
notes: HC as printed runs into CH1
B15: M27-F04 (Fab, V domains shown)
VH: EVQLLESGGGLVQPGGSLRLSCAASGFTFSWYPMTWVRQAPGKGLEWVSSIGPSGGQTIYADSVKGRFTISRDNSKNTLYLQMNSLRAEDTAVYYCTTEYGDYGGGFDPWGQGTLVTVSS
VL: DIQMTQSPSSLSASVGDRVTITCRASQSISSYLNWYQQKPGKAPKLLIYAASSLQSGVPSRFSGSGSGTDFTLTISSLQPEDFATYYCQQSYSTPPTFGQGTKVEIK
notes: HC as printed runs into CH1
B16: M27-A10 (Fab, V domains shown)
VH: EVQLLESGGGLVQPGGSLRLSCAASGFTFSWYRMDWVRQAPGKGLEWVSSIWPSGGLTSYADSVKGRFTISRDNSKNTLYLQMNSLRAEDTAVYYCARGWAPGGDAFDIWGQGTMVTVSS
VL: DIQMTQSPSSLSASVGDRVTITCRASQSISAYLNWYQQKPGKAPQLLMYGVGSLQSGVPSRFSGSGSGTDFTLTISSLQPEDFATYFCQQGYTTPVTFGGGTKVEIK
notes: HC as printed runs into CH1
B17: M11-G12 (Fab, V domains shown)
VH: EVQLLESGGGLVQPGGSLRLSCAASGFTFSQYPMNWVRQAPGKGLEWVSSISSSGGFTTYADSVKGRFTISRDNSKNTLYLQMNSLRAEDTAVYYCAREEQQGGFDYWGQGTLVTVSS
VL: DIQMTQSPSSLSAFVGDRVSITCRASQTISVYVNWYQHKSGQAPKLLIYGASSLQSGVPSRFSGSGSGTDFTLTISSLQPEDFATYFCQQSYSIPFTFGGGTDVQIR
notes: HC as printed runs into CH1
B18: M27-G04 (Fab, V domains shown)
VH: EVQLLESGGGLVQPGGSLRLSCAASGFTFSAYYMVWVRQAPGKGLEWVSYISPSGGQTQYADSVKGRFTISRDNSKNTLYLQMNSLRAEDTAVYYCAREAISSSSFDYWGQGTLVTVSS
VL: DIQMTQSPSSLSASVGDRVTITCRASQRISYYLTWYQQKPGKVPKLLIYAASSLESGVPSRFSGSGSGTDFTLTISNLQPEDFATYYCQQAFSTPFTFGGGTKVEIK
notes: HC as printed runs into CH1
B19: M12-A08 (Fab, V domains shown)
VH: EVQLLESGGGLVQPGGSLRLSCAASGFTFSWYYMGWVRQAPGKGLEWVSWIVSSGGLTLYADSVKGRFTISRDNSKNTLYLQMNSLRAEDTAMYYCARTTVTTGDAFDIWGQGTMVTVSS
VL: DIQMTQSPSSLSASVGDRVTITCRASQSISRYLNWYQQKPGKAPKLLIYAASTLETGVPSRFSGSGSGTDFTLTITTLQPEDFVIYYCQQSYSTPYTFGQGTKLEIK
notes: HC as printed runs into CH1
B20: M27-G01 (Fab, V domains shown)
VH: EVQLLESGGGLVQPGGSLRLSCAASGFTFSLYRMFWVRQAPGKGLEWVSSIWSSGGPTMYADSVKGRFTISRDNSKNTLYLQMNSLRAEDTAVYYCAREYPSTYYFDYWGQGTLVTVSS
VL: DIQMTQSPSSLSASVGDRVTITCRASQSISTYLNWYQQKPGKAPKLLIYGASSLQSGVPSRFSGSGSGTDFTLTISSLQPEDFTIYYCQQSYSDPYTFGQGTKLDIK
notes: HC as printed runs into CH1
B21: M11-G09 (Fab, V domains shown)
VH: EVQLLESGGGLVQPGGSLRLSCAASGFTFSLYNMTWVRQAPGKGLEWVSYIYPSGGGTHYADSVKGRFTISRDNSKNTLYLQMNSLRAEDTAVYYCARDTGFWSADAFDIWGQGTMVTVSS
VL: DIQMTQSPSSLSASVGDRVTITCRTSQGINHYLNWYQQKPGKAPKILVFAASELQTGVPSRFSGTGSGTSYTLTITSLQPEDVATYYCQQTYTSPYTFGQGTKLEVK
notes: HC as printed runs into CH1
B22: M11-E05 (Fab, V domains shown)
VH: EVQLLESGGGLVQPGGSLRLSCAASGFTFSWYTMGWVRQAPGKGLEWVSWIYFGGLTTYADSVKGRFTISRDNSKNTLYLQMNSLRAEDTAVYYCARLGGPLDAFDIWGQGTMVTVSS
VL: DIQMTQSPSSLSASVGDTVTITCRTSQTINNYLNWYQQRPGEAPKVLIYATHTLESGVPSRFSGSGSGTDFTLTIGSLQPEDFATYYCQQSFAFPYTFGQGTKVEIT
notes: HC as printed runs into CH1

Molecular target: T1, human plasma kallikrein (human, UniProt P03952 20-390; P03952 391-638)
T1 construct: also called pKal; Human pKal
Assay: ELISA, biotinylated pKal signal over streptavidin background
Text: Abbreviations used: “T/B” is the ELISA signal obtained using of the “target” (biotinylated plasma kallikrein) divided by the ELISA signal of the “background” (streptavidin); both of which were coated on microtiter plates, “nd” is not determined. The symbol “q” refers to the amber suppressible stop codon (TAG), which is translated as glutamine (Q) in strains of E. coli such as the TG1 cells that were used to express the Fab fragments.

T1 sequence (P03952 20-390, chain 1 of 2): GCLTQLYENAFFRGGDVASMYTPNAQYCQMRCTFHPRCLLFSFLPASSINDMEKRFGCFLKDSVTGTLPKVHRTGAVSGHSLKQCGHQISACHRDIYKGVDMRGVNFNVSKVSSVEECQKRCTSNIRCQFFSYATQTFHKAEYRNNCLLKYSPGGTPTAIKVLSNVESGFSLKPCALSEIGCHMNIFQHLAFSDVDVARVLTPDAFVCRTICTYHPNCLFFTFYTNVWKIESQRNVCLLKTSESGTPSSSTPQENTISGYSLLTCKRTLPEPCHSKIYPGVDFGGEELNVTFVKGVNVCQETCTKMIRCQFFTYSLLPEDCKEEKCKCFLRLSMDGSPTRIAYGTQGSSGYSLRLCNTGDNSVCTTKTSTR
T1 sequence (P03952 391-638, chain 2 of 2): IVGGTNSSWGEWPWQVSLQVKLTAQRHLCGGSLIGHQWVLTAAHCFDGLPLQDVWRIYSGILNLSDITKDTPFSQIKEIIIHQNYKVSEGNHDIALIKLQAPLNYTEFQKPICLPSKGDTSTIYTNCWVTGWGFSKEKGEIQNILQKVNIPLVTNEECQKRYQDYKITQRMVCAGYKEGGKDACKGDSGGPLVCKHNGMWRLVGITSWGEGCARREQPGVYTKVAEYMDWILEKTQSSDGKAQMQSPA

Binder	ELISA (T/B)
B1	10
B2	43.2
B3	18
B4	25
B5	11.7
B6	9.9
B7	35.9
B8	7
B9	12.6
B10	8.3
B11	48
B12	33.1
B13	2.3
B14	7.1
B15	10.5
B16	3.2
B17	4.9
B18	4.1
B19	40.4
B20	31.4
B21	23.6
B22	41.4

Reference: patent US20260184815A1 (published 2026)
